Square brackets hold non-standard residues; d marks the D form. Ends that are not written are not given here. Nle = CCCC[C@H](N)C(=O)O
What was measured:
mutant G551D CFTR = target: T1, mutant G551D CFTR (Homo sapiens, UniProt P13569, G551D); assay: Planar lipid bilayer open probability of mutant CFTR; assay type: biochemical
T1 construct: expressed in transfected cells; host or cells: 293-EBNA HEK cells (inferred: the methods describe this line for 'the CFTR proteins')
Excerpt: The Q4 N2 NEG2 peptide sequence has been tested on one mutant form of CFTR, G551D, which reaches the plasma membrane. In the planar lipid bilayer, Q4N2NEG2 increased the open probability of G551 by about threefold. Thus, this peptide is useful to stimulate channel activity in mutant forms of CFTR that reach the plasma membrane.
(§1) Lipid bilayer membranes were formed across an aperture of ˜200 (m diameter with a mixture of phosphatidylethanolamine:phosphatidylserine:cholesterol in a ratio of 5:5:1. The lipids were dissolved in decane at a concentration of 33 mg/ml. The recording solutions contained: cis (intracellular), 200 mM CsCl, 1 mM MgCl2, 2 mM ATP, and 10 mM HEPES-Tris (pH 7.4); trans (extracellular), 50 mM CsCl, 10 mM HEPES-Tris (pH 7.4). Vesicles (1-4 (1) containing wild-type CFTR were added to the cis solution. The PKA catalytic subunit was present at a concentration of 50 units/ml in the cis solution unless noted otherwise. Single channel currents were recorded with an Axopatch 200A patch clamp unit (Axon Instruments). The currents were sampled at 1-2.5 ms/point. Single channel data analyses were performed with pClamp and TIPS softwares.

wt-CFTR channel = target: T2, wt-CFTR channel (Homo sapiens, UniProt P13569); assay: Single channel recording of CFTR channels reconstituted in planar lipid bilayer, peptide added to cis (intracellular) side; assay type: biochemical
T2 construct: expressed in transfected cells; host or cells: 293-EBNA HEK cells (Invitrogen) transfected with pCEP4(wt); microsomal membrane vesicles
Excerpt: The activating peptide of Q4N2NEG2 was created by substituting glutamine residues for glutamic acid residues at four sites and asparagines for aspartic acid residues at two sites of the authentic NEG2 peptide sequence […] (SEQ ID NO: 7). In addition, a serine residue was substituted for cysteine, to prevent peptide dimerization, and norleucine was substituted for methionine, to prevent oxidation. These changes create a peptide with reduced chemical reactivity and high predicted helical structure, confirmed by circular dichroism, as well as reduced net negative charge (from −9 to −3). […] At concentrations of 4-6 μM Po of CFTR doubles.
To test whether the Q4N2NEG2 polypeptide is responsible for increasing the open probability of the CFTR channel, synthetic Q4N2NEG2, a 22 amino acid peptide, was added to the cis-intracellular side of single CFTR channels captured in the planar lipid bilayer (FIG. 1). […] During stimulation, the open probability doubles and more transitions are observed between the open and closed states (FIG. 1B). The open probability observed in 5 experiments at 4 μM concentration Q4N2NEG2 is shown to be increased by about two-fold in the graph (FIG. 1C).
The wt CFTR cDNA was subcloned into an Epstein-Barr virus-based episomal eukaryotic expression vector, pCEP4 (Invitrogen, San Diego, Calif.), between the Nhe1 and Xho1 restriction sites.
A human embryonic kidney cell line (293-EBNA HEK; Invitrogen) was used for transfection and expression of the CFTR proteins (Ma et al., 1997, Ma et al., 1996, Xie et al., 1995). The HEK-293 cell line contains a pCMV-EBNA vector, which constitutively expresses the Epstein-Barr virus nuclear antigen-1 (EBNA-1) gene product and increases the transfection efficiency of Epstein-Barr virus-based vectors. The cells were maintained in Dulbecco's Modified Eagle Medium with 10% FBS and 1% L-glutamine. Geneticin (G418, 250 (g/ml) was added to the cell culture medium to maintain selection of the cells containing the pCMV-EBNA vector. Lipofectamine reagent (Life Technologies, Inc) in Optimem media (serum-free) was used to transfect the HEK-293 cells with pCEP4(wt). After 5 hours, serum was added to the media (10% final serum concentration). Twenty-four hours after transfection, the transfection media was replaced with fresh media. The cells were harvested two days after transfection and microsomal membrane vesicles were prepared for single channel measurements in the lipid bilayer reconstitution system.
HEK-293 cells transfected with pCEP4(CFTR) were harvested and homogenized using a combination of hypotonic lysis and Dounce homogenization in the presence of protease inhibitors (Ma et al., 1997, Ma et al., 1996, Xie et al., 1995). […]
as §1, with “The currents were sampled at 1-2.5 ms/point. Single channel data analyses were performed with pClamp and TIPS softwares.” left out

T2 sequence (P13569 whole entry): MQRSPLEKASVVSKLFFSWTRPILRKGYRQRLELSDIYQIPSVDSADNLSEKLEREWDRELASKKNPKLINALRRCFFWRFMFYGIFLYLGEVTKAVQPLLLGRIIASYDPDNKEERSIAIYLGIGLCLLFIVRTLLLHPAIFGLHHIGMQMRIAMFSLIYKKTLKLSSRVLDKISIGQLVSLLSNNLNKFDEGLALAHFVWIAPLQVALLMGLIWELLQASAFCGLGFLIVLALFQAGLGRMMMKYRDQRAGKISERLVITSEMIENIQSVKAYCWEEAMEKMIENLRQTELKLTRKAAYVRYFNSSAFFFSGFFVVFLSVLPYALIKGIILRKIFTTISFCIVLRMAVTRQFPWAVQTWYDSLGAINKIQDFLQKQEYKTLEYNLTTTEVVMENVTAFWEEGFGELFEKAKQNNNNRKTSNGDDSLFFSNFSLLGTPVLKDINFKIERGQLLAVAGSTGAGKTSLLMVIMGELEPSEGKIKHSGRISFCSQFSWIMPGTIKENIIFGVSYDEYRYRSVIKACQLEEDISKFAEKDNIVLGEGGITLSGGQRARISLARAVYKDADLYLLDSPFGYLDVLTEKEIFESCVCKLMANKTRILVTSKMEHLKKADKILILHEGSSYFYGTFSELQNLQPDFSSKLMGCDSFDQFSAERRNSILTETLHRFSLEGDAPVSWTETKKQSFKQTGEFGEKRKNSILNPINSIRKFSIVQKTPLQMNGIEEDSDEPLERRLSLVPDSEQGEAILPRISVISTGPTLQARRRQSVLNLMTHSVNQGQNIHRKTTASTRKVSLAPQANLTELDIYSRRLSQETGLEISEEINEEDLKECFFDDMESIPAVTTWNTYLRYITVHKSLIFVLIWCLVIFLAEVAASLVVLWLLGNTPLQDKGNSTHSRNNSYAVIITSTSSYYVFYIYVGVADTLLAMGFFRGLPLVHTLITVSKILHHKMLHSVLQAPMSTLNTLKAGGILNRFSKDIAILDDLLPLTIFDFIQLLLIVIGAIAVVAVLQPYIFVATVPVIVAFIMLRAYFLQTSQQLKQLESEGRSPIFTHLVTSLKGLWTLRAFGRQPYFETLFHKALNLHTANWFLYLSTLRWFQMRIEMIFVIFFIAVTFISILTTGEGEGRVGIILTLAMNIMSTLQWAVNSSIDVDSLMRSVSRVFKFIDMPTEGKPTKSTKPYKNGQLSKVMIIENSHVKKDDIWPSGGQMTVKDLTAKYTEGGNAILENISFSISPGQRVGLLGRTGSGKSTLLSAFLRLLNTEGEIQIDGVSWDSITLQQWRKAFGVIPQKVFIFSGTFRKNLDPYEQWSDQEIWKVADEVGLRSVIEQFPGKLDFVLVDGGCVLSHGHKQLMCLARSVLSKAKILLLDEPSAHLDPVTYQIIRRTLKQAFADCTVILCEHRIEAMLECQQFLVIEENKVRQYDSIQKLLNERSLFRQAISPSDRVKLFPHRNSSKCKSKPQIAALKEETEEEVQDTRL
T1 sequence (P13569 whole entry G551D): as the sequence (P13569 whole entry) above, with G551D counted along it

## GLEISEQINQQNLKQSFFNDLE (Ac-GLEISEQINQQNLKQSFFND[Nle]E; not fully specified (C-terminus)) [Q4N2NEG2, synthetic 22 amino acid peptide derived from NEG2 with four Glu to Gln, two Asp to Asn, Cys to Ser, Met to norleucine substitutions]
Mutant G551D CFTR
  increase in open probability of G551D CFTR: about threefold
wt-CFTR channel; 4 μM peptide, summary of 5 experiments (FIG. 1C)
  increase in open probability (Po) of CFTR channel: about two-fold
wt-CFTR channel; any experiment at any concentration of peptide
  inhibitory activity on CFTR channel: No inhibitory activity
wt-CFTR channel; concentration ranging 0.5 to 14 μM, cis side
  stimulation of channel activity: marked dose-related stimulation
wt-CFTR channel; peptide concentrations of 4-6 μM, cis side
  Po of CFTR: doubles
wt-CFTR channel; single channel trace, FIG. 1A/1B, 4 μM
  open probability during stimulation, single wt-CFTR channel: doubles

— patent publication US20030100501A1, “Q4N2NEG2 enhances CFTR activity” (Case Western Reserve University, priority 2001, published 2003)
